± gives the standard deviation.

The data set in a line: protein stability index of a GFP-peptide fusion (GPS, HEK-293T) (PSI 1-6); higher = more stable. As to conditions: c terminus: a fixed tail appended.
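Further: 24-mer peptide tiles fused after GFP, lentivirally expressed, FACS-sorted into six equal bins by GFP/DsRed ratio, decoded by Illumina sequencing, PSI is the read-weighted mean bin number.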

For YLPRDFSTYRPLPDPSVWSRRYTE [MYORG], the protein stability index by setting is: (treatment: DMSO) 2.64 ± 0.17; (treatment: MLN4924 1 uM, 8 h) 2.82 ± 0.29.
As for YNPDLKKVVEAHKIVLCAVSHVFM [RHOBTB3], the protein stability index runs as follows: (treatment: DMSO) 2.95 ± 0.57; (treatment: MLN4924 1 uM, 8 h) 2.97 ± 0.26.
Regarding YPIYVIPEPPPVSFQPYHPLHFRG [TENT5D], the protein stability index reads like this: (treatment: DMSO) 2.35 ± 0.28; (treatment: MLN4924 1 uM, 8 h) 2.32 ± 0.37.
The matching figures for YPPFWDEDQHRLYQQIKAGAYDFP [CAMK2D]: 2.56 ± 0.21 and 2.64 ± 0.25.
On to YQASAMMVESRYALLIVDSATALY [RAD51], for which the protein stability index (treatment: DMSO) was determined as 2.94 ± 0.47 and the protein stability index (treatment: MLN4924 1 uM, 8 h) worked out at 2.89 ± 0.41.
The matching figures for YQYLHYALFKANRLEKAVAAAYTF [P3H4]: 2.22 ± 0.17 and 2.55 ± 0.25.
For the sequence YRQKLLMFLEISSYYDPGRLICDF [VPS39], the protein stability index turned out to be 2.92 ± 0.55 (treatment: DMSO) and 2.7 ± 0.56 (treatment: MLN4924 1 uM, 8 h).
For YRVSDVTKAGHSLELIEPLIKFQV [VDR], in that order: 1.99 ± 0.4 and 2.12 ± 0.21.
For the sequence YSLELGKAIKQKLWEALCSQGAIS [C22orf31], the protein stability index is, setting by setting: (treatment: DMSO) 2.4 ± 0.45; (treatment: MLN4924 1 uM, 8 h) 2.63 ± 0.29.
YSNTKENGINGELTSADRETAEEV [MAP2]: the protein stability index is, setting by setting: (treatment: DMSO) 5.47 ± 0.13; (treatment: MLN4924 1 uM, 8 h) 5.44 ± 0.24.
For the sequence YYPTSSSTSFMSSSSSSSSWLTRR [EMD], the protein stability index by setting is: (treatment: DMSO) 3.23 ± 0.19; (treatment: MLN4924 1 uM, 8 h) 3.29 ± 0.39.

The values are drawn from the supplement of paper PMC10567573.
